Experimental findings from article PMC6426777 (Frontiers in Immunology, 2019) are described below.

In general, koff refers to the first-order rate constant of dissociation. What is called kon is the second-order rate constant of association.

In this test the target is T1, recombinant wild-type C1q (human, UniProt P02745 23-245; P02746 28-253; P02747 29-245).
T1 construct: C1q A chain, human; C1q B chain, human; C1q C chain, human; Hexamer of A-B-C heterotrimers (18 chains); also called C1qWT; WT; source: purified from culture supernatant (IgG-ovalbumin aggregates, anti-FLAG M2 column); copies: 6 + 6 + 6
T1 sequence (P02745 23-245, chain 1 of 3): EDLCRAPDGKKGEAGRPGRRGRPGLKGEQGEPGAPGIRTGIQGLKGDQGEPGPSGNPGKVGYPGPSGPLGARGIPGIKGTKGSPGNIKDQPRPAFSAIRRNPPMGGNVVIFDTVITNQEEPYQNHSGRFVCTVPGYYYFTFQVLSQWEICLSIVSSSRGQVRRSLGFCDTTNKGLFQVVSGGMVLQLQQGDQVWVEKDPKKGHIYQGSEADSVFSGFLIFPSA
T1 sequence (P02746 28-253, chain 2 of 3): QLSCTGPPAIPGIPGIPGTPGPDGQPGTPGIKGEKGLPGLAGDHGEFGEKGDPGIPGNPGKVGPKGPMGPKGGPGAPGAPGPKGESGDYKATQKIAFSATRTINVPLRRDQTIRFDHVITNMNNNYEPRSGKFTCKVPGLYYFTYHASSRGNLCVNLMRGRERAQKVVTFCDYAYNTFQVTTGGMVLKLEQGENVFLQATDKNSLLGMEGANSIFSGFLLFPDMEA
T1 sequence (P02747 29-245, chain 3 of 3): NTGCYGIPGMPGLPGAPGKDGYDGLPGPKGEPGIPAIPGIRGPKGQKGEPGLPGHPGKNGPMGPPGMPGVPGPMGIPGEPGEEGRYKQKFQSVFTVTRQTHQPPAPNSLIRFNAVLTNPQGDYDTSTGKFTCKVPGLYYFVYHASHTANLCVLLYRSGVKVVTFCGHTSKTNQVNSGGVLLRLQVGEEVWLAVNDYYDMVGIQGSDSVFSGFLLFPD
The experiment in a line: SPR; Biacore 3000, 25°C; C1q variants immobilised on CM5 chips by amine coupling; partners injected at 20 μl/min in 50 mM Tris-HCl, 150 mM NaCl, 2 mM CaCl2, 0.005% surfactant P20, pH 7.4; BSA reference surface; global fit to 1:1 Langmuir model; apparent KD = kd/ka. The note with it: both partners purified. (In general: Surface plasmon resonance follows binding to a sensor surface in real time, without labels.)

B1: recombinant human MASP-2 dimer (enzyme, UniProt O00187 16-686, looked up)
chain: TPLGPKWPEPVFGRLASPGFPGEYANDQERRWTLTAPPGYRLRLYFTHFDLELSHLCEYDFVKLSSGAKVLATLCGQESTDTERAPGKDTFYSLGSSLDITFRSDYSNEKPFTGFEAFYAAEDIDECQVAPGEAPTCDHHCHNHLGGFYCSCRAGYVLHRNKRTCSALCSGQVFTQRSGELSSPEYPRPYPKLSSCTYSISLEEGFSVILDFVESFDVETHPETLCPYDFLKIQTDREEHGPFCGKTLPHRIETKSNTVTITFVTDESGDHTGWKIHYTSTAQPCPYPMAPPNGHVSPVQAKYILKDSFSIFCETGYELLQGHLPLKSFTAVCQKDGSWDRPMPACSIVDCGPPDDLPSGRVEYITGPGVTTYKAVIQYSCEETFYTMKVNDGKYVCEADGFWTSSKGEKSLPVCEPVCGLSARTTGGRIYGGQKAKPGDFPWQVLILGGTTAAGALLYDNWVLTAAHAVYEQKHDASALDIRMGTLKRLSPHYTQAWSEAVFIHEGYTHDAGFDNDIALIKLNNKVVINSNITPICLPRKEAESFMRTDDIGTASGWGLTQRGFLARNLMYVDIPIVDHQKCTAAYEKPPYPRGSVTANMLCAGLESGGKDSCRGDSGGALVFLDSETERWFVGGIVSWGSMNCGEAGQYGVYTKVINYIPWIENIISDF
Take B1: the Kd stood at 5.04 nM, the koff amounted to 0.00234 s⁻¹ and the kon amounted to 463000 M⁻¹ s⁻¹.
